Test results: PMC4500961, “H2O2 production rate in Lactobacillus johnsonii is modulated via the interplay of a heterodimeric flavin oxidoreductase with a soluble 28 Kd PAS domain containing protein” (Frontiers in Microbiology, 2015)
One block for each molecule: values may come before it.

Key:
FRedA/B = target: T1, FRedA/B (Lactobacillus johnsonii, UniProt A0A7D9N7Z8+A0A7D9N811); assay: isothermal titration calorimetry; assay type: binding
T1 construct: gene T285_08435; full-length, both chains N-terminal His6, co-expressed and co-purified from E. coli BL21 (p15TV-fredA + pCDF-his-fredB); heterodimer 43 kDa
Excerpt: isothermal titration calorimetry on FRedA/B | FMN binding to the FRedA/B heterodimer is an exergonic reaction

[1] = target: His6-FRedB (putative FMN reductase FRedB of Lactobacillus johnsonii N6.2, from p15TV-fredB, individually purified) (Lactobacillus johnsonii N6.2)
[2] = target: FRedB fused to the zinc finger DNA-binding domain of murine Zif268 (pACTR-fredB) (Lactobacillus johnsonii N6.2); assay: two-hybrid; bacterial two-hybrid in E. coli KDZifΔZ (ω subunit fusion and Zif268 fusion), 10 μM IPTG, β-galactosidase activity with CPRG in arbitrary units; static or aerobic growth
purified protein [3] = substrate: NC(=O)C1=CN([C@@H]2O[C@H](COP(=O)(O)OP(=O)(O)OC[C@H]3O[C@@H](n4cnc5c(N)ncnc54)[C@H](O)[C@@H]3O)[C@@H](O)[C@H]2O)C=CC1; assay: purified protein; assay type: biochemical, Lactobacillus johnsonii; settings: fixed flavin electron acceptor, 100 mM MES pH 5.5, 37 °C
purified protein [4] = substrate: Cc1cc2nc3c(=O)[nH]c(=O)nc-3n(C[C@H](O)[C@H](O)[C@H](O)COP(=O)(O)O)c2cc1C; assay: purified protein; assay type: biochemical, Lactobacillus johnsonii; settings: fixed NADH, 100 mM MES pH 5.5, 37 °C
purified protein [5] = substrate: Cc1cc2nc3c(=O)[nH]c(=O)nc-3n(C[C@H](O)[C@H](O)[C@H](O)COP(=O)(O)OP(=O)(O)OC[C@H]3O[C@@H](n4cnc5c(N)ncnc54)[C@H](O)[C@@H]3O)c2cc1C; assay: purified protein; assay type: biochemical, Lactobacillus johnsonii; settings: fixed NADH, 100 mM MES pH 5.5, 37 °C

Kd (FRedA/B): 1960 ± 130 nM
Molecule: Cc1cc2nc3c(=O)[nH]c(=O)nc-3n(C[C@H](O)[C@H](O)[C@H](O)COP(=O)(O)O)c2cc1C [FMN]

initial rate (V0) of NADH oxidase activity, FRedB preincubated with purified LjPAS (reduced by 50%) (μmol min^-1 mg^-1) [1]: 2.6
initial rate (Vo) of NADH oxidase activity, both monomers combined and incubated with FMN before addition of NADH (μmol min^-1 mg^-1) [1]: 31.3
initial rate of NADH oxidase activity, FRedA preincubated with FMN before addition of FRedB (μmol min^-1 mg^-1) [1]: 0.27
initial rate of NADH oxidase activity, FRedB preincubated with FMN before addition of FRedA (μmol min^-1 mg^-1) [1]: 6.48
initial rate of NADH oxidase activity, purified LjPAS added after FRedA and FRedB were preincubated with FMN (not significantly slower) (μmol min^-1 mg^-1) [1]: 25.2
Molecule: His6-FRedA (putative FMN reductase FRedA of Lactobacillus johnsonii N6.2, from p15TV-fredA) (natural protein)

β-galactosidase activity [2]: 11700 AU
Molecule: FRedA fused to the ω subunit of E. coli RNA polymerase (pBR-fredA) (natural protein)

B1: FRedA/B (Lactobacillus johnsonii N6.2) (protein)
chain 1: MKLLAIVGTNADFSYNRFLDQFMAKRYKDQAEIEVYEIADLPRFKKEAQPDSKVEEFKNKIREADGVIFATPEYDHGIPSALKSAMEWTGSHAQGNADVMKMKPAMVLGTSYGIQGASRAQEEMREILLSPDQSANVLPGNEVLIGHAADKFDKNTGDLLDQETIHAIDLAFNNFVKFVEQAQK
chain 2: MKLFAIVGSNADHSYNRDLLNFIKKHFTDRYDIELGEVKDLPMFKEGVKEPAAVASFAKKVADADAVLISTPEQQHSVPSSLKSALEWLSSAEHPFKDKPVVIVGTSVLPQGSARGQSHLKLVLSSPGFGAKVFNGDEFMMGTAPEQFDENGNLPAGTVKFLDHFFDEFDSFYAEVSK
notes: full-length, both chains N-terminal His6, co-expressed and co-purified from E. coli BL21 (p15TV-fredA + pCDF-his-fredB); heterodimer 43 kDa
Km (purified protein [3]): 59.68 ± 5.8 µM
Vmax (purified protein [3]): 185 µmol/min/mg
kcat (purified protein [3]): 132 s⁻¹
kcat/Km (purified protein [3]): 2.22e+06 M⁻¹ s⁻¹
Km (purified protein [4]): 20.36 ± 2.6 µM
Vmax (purified protein [4]): 204 µmol/min/mg
kcat (purified protein [4]): 146 s⁻¹
kcat/Km (purified protein [4]): 7.16e+06 M⁻¹ s⁻¹
Km (purified protein [5]): 19.85 ± 2.5 µM
Vmax (purified protein [5]): 67 µmol/min/mg
kcat (purified protein [5]): 48 s⁻¹
kcat/Km (purified protein [5]): 2.42e+06 M⁻¹ s⁻¹
